Laboratory results as given in patent publication US20210009706A1 (JIANGSU HENGRUI MEDICINE, published 2021).

T1: Human CD27-His (human, UniProt P26842 21-192)
T1 construct: also called CD27-His (Sino Biological #10039-H08B1); not shown: His tag
T1 sequence (looked up): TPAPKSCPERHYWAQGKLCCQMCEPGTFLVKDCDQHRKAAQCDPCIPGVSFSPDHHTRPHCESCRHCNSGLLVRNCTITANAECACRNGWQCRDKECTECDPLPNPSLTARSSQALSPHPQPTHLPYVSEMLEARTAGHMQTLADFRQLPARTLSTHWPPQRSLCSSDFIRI

T2: Human CD27-HisFc (human, UniProt P26842 21-192)
T2 construct: Bought reagent; also called CD27-HisFc (Sino Biological #10039-H03H); human CD27-HisFc fusion protein; not shown: His tag and Fc
T2 sequence (looked up): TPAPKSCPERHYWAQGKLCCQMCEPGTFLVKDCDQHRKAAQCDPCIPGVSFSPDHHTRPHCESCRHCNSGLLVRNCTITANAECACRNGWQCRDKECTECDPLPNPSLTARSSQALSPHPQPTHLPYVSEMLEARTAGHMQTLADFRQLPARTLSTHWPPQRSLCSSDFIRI

T3: human CD27-his antigen (Yiqiao Shenzhou #10039-H08H) (human, UniProt P26842 21-192)
T3 construct: Bought reagent; also called huCD27-his (Sino Biological); not shown: His tag
T3 sequence (looked up): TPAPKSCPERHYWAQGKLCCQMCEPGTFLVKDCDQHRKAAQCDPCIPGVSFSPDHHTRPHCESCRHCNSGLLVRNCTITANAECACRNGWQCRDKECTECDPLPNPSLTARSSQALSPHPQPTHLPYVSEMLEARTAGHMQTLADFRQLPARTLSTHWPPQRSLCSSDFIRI

T4: Murine CD27-HisFc (murine, UniProt P41272 24-182, limits assumed)
T4 construct: not shown: His tag and Fc
T4 sequence (looked up): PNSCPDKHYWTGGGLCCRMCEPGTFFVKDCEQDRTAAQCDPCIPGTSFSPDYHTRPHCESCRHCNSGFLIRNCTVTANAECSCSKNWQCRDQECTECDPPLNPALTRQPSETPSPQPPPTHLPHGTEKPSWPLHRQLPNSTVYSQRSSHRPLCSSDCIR


What was measured:
Human CD27-His = target: T1, Human CD27-His; assay: BLI (Octet RED96), 1:1 Langmuir fit; format for IgG not described
Macaca CD27-Fc = Macaca CD27-Fc (Macaca); assay: as above
Human CD27-HisFc [1] = target: T2, Human CD27-HisFc; assay: BLI (Octet RED96), CD27-HisFc captured on AHC sensor, Fab in solution, 1:1 Langmuir fit
Source text: The antibody Fab fragment of each unique sequence with addition of histidine tag at its C-terminus was overexpressed using E. coli expression system, and then purified by Ni-NTA affinity resin. […] The collected data was processed by Data Acquisition 7.1 software and fitted to a 1:1 Langmuir model curve. The antibody mAb077 with the best binding capacity was obtained by screening for further analysis and development experiments.

[2] = target: T3, human CD27-his antigen (Yiqiao Shenzhou …); assay: SPR (Biacore T200), antibody captured on protein A chip, CD27-his as analyte, 1:1 Langmuir fit
Source text: The protein A biosensor chip was used to affinity capture the antibody molecule to be tested, and then the human CD27-his antigen (Yiqiao Shenzhou #10039-H08H) of various gradient concentrations was flowed on the surface of the chip, and the reaction signal was detected in real time with the Biacore T200 instrument to obtain the association and dissociation curve. After the dissociation of each experimental cycle was completed, the biosensor chip was washed and regenerated with glycine-hydrochloric acid regeneration solution (pH 1.5). BIAevaluation version 4.1 and GE software were used to fit the data with a (1:1) Langmuir model, the affinity values were obtained as shown in the table below. The affinity of the mutant molecule 077N74T is slightly higher than that of the original mAb077 molecule but there is no significant difference.

Human CD27-HisFc [3] = target: T2, Human CD27-HisFc; assay: BLI (Octet RED96), 1:1 Langmuir fit; format for IgG not described
Murine CD27-HisFc = target: T4, Murine CD27-HisFc; assay: as above

| Kd (Macaca CD27-Fc) | koff (Macaca CD27-Fc) | kon (Macaca CD27-Fc) | Kd [2] | koff [2] | kon [2] | Binder | also measured |
| --- | --- | --- | --- | --- | --- | --- | --- |
| 2.13 nM | 0.000243 s⁻¹ | 114000 M⁻¹ s⁻¹ | – | – | – | 1F5-IgG (antibody, V domains shown) VH: QVQLVESGGGVVQPGRSLRLSCAASGFTFSSYDMHWVRQAPGKGLEWVAVIWYDGSNKYYADSVKGRFTISRDNSKNTLYLQMNSLRAEDTAVYYCARGSGNWGFFDYWGQGTLVTVSS VL: DIQMTQSPSSLSASVGDRVTITCRASQGISRWLAWYQQKPEKAPKSLIYAASSLQSGVPSRFSGSGSGTDFTLTISSLQPEDFATYYCQQYNTYPRTFGQGTKVEIK | Kd (Human CD27-His): 1.39 nM; koff (Human CD27-His): 9.15e-05 s⁻¹; kon (Human CD27-His): 65800 M⁻¹ s⁻¹ |
| – | – | – | – | – | – | mAb077-Fab (Fab, V domains shown, only the variable domains are tied to the Fab; also called mAb077 Fab fragment; mAb77) VH: EVQLVESGGGLVQPGGSLRLSCAASGFTFSGYGIHWVRQAPGKGLEWIGWINPNRGSTKYAQKFQGRVTISRDNSKNTLYLQLNSLRAEDTAVYYCARDPGYTWYFDVWGQGTLVTVSS VL: DIQLTQSPSSLSASVGDRVTITCRASQDISSDLAWYQQKPGKAPKLLIYAASTLQSGVPSRFSGSGSGTDFTLTISSLQPEDFATYYCQQRDAWPPTFGQGTKVEIK | Kd (Human CD27-HisFc [1]): 4.08 nM; koff (Human CD27-HisFc [1]): 0.00121 s⁻¹; kon (Human CD27-HisFc [1]): 296000 M⁻¹ s⁻¹ |
| – | – | – | 0.261 nM | 6.75e-05 s⁻¹ | 259000 M⁻¹ s⁻¹ | 077N74T (antibody, V domains shown, The light chain is the same as in mAb077; also called mutant molecule 077N74T; 077N74T antibody) VH: EVQLVESGGGLVQPGGSLRLSCAASGFTFSGYGIHWVRQAPGKGLEWIGWINPNRGSTKYAQKFQGRVTISRDTSKNTLYLQLNSLRAEDTAVYYCARDPGYTWYFDVWGQGTLVTVSS VL: DIQLTQSPSSLSASVGDRVTITCRASQDISSDLAWYQQKPGKAPKLLIYAASTLQSGVPSRFSGSGSGTDFTLTISSLQPEDFATYYCQQRDAWPPTFGQGTKVEIKR | – |
| 0.562 nM | 4.26e-05 s⁻¹ | 75800 M⁻¹ s⁻¹ | 0.335 nM | 8.34e-05 s⁻¹ | 249000 M⁻¹ s⁻¹ | mAb077-IgG (antibody, V domains shown, also called mAb77) VH: EVQLVESGGGLVQPGGSLRLSCAASGFTFSGYGIHWVRQAPGKGLEWIGWINPNRGSTKYAQKFQGRVTISRDNSKNTLYLQLNSLRAEDTAVYYCARDPGYTWYFDVWGQGTLVTVSS VL: DIQLTQSPSSLSASVGDRVTITCRASQDISSDLAWYQQKPGKAPKLLIYAASTLQSGVPSRFSGSGSGTDFTLTISSLQPEDFATYYCQQRDAWPPTFGQGTKVEIKR | Kd (Human CD27-HisFc [3]): 0.137 nM; koff (Human CD27-HisFc [3]): 2.17e-05 s⁻¹; kon (Human CD27-HisFc [3]): 158000 M⁻¹ s⁻¹; Kd (Murine CD27-HisFc): 0.0304 nM; koff (Murine CD27-HisFc): 1.33e-05 s⁻¹; kon (Murine CD27-HisFc): 438000 M⁻¹ s⁻¹ |
